# This sample holds only a part of the variants without activity.
# What was measured:
# biotinyl-Trp-oxazolone = test: self-aminoacylation, catalytic enhancement (BWO) (fold over background); higher = more active; k-Seq, kA / k0A0; sequences stand for … in GGGAAUGGAUCCACAUCUACGAAUUC…UUCACUGCAGACUUGACGAAGCUG
# Outline: (§1)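 Mutagenized RNA pools with a 21-nt variable region (0.43 μM) reacted with each biotinyl-aminoacyl-oxazolone at 2–1250 μM. Reactions ran in 50 μL HEPES/NaCl/KCl/MgCl2/CaCl2 buffer with 5% acetonitrile, pH 6.9–7.0, for 90 minutes at room temperature. Streptavidin-captured RNA was quantified by triplicate qPCR and Illumina sequencing, and per-sequence fraction reacted was fit to a pseudo-first-order model with 1000 bootstraps. Catalytic enhancement is median kA divided by the uncatalyzed rate, the low-activity peak of a bimodal Gaussian fit.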
# biotinyl-Ile-oxazolone = test: self-aminoacylation, catalytic enhancement (BIO) (fold over background); higher = more active; k-Seq, kA / k0A0; sequences stand for … in GGGAAUGGAUCCACAUCUACGAAUUC…UUCACUGCAGACUUGACGAAGCUG
# Outline: as §1
# biotinyl-Met-oxazolone = test: self-aminoacylation, catalytic enhancement (BMO) (fold over background); higher = more active; k-Seq, kA / k0A0; sequences stand for … in GGGAAUGGAUCCACAUCUACGAAUUC…UUCACUGCAGACUUGACGAAGCUG
# Outline: as §1
# biotinyl-Val-oxazolone = test: self-aminoacylation, catalytic enhancement (BVO) (fold over background); higher = more active; k-Seq, kA / k0A0; sequences stand for … in GGGAAUGGAUCCACAUCUACGAAUUC…UUCACUGCAGACUUGACGAAGCUG
# Outline: as §1
# biotinyl-Leu-oxazolone = test: self-aminoacylation, catalytic enhancement (BLO) (fold over background); higher = more active; k-Seq, kA / k0A0; sequences stand for … in GGGAAUGGAUCCACAUCUACGAAUUC…UUCACUGCAGACUUGACGAAGCUG
# Outline: as §1
# biotinyl-Phe-oxazolone = test: self-aminoacylation, catalytic enhancement (BFO) (fold over background); higher = more active; k-Seq, kA / k0A0; sequences stand for … in GGGAAUGGAUCCACAUCUACGAAUUC…UUCACUGCAGACUUGACGAAGCUG
# Outline: as §1
Sequence,self-aminoacylation (biotinyl-Trp-oxazolone),self-aminoacylation (biotinyl-Ile-oxazolone),self-aminoacylation (biotinyl-Met-oxazolone),self-aminoacylation (biotinyl-Val-oxazolone),self-aminoacylation (biotinyl-Leu-oxazolone),self-aminoacylation (biotinyl-Phe-oxazolone)
ACACACUUCAGGCAAUCGGUC [Fam1B.1 aminoacylation ribozyme variant],1.84,1.56,1.38,1.44,1.42,1.75
ACACACUUCCAGCAAUCGGUC [Fam1B.1 aminoacylation ribozyme variant],1.6,1.47,1.31,1.3,1.3,1.19
ACACAUUUCAAGCAAUCGGUC [Fam1B.1 aminoacylation ribozyme variant],1.86,1.2,1.12,1.41,1.12,2.41
ACACUUCAAACAAUCGGUCUG [Fam1A.1 aminoacylation ribozyme variant],33.3,1.7,1.57,1.43,2.16,75.9
ACGUUUCCUAAUAGUCGCAAG [Fam3.1 aminoacylation ribozyme variant],1.3,1.61,1.33,1.21,1.08,1.35
ACGUUUGCUAAGAGUCGCAAG [Fam3.1 aminoacylation ribozyme variant],1.44,1.35,1.12,1.44,1.65,2.95
ACGUUUGCUAAUAGUCGCAAC [Fam3.1 aminoacylation ribozyme variant],0.859,1.36,0.972,1.18,1.43,1.42
ACGUUUGCUCAUAGUCGCAAG [Fam3.1 aminoacylation ribozyme variant],3.57,1.89,1.88,1.91,2.49,2.58
ACGUUUGCUUAUAGUCGCAAG [Fam3.1 aminoacylation ribozyme variant],1.75,1.32,1.68,1.46,1.67,1.76
ACGUUUGGUAAUAGUCGCAAG [Fam3.1 aminoacylation ribozyme variant],2.45,1.75,1.54,1.55,2.1,2.95
ACGUUUGUUAAUAGUCGCAAG [Fam3.1 aminoacylation ribozyme variant],1.71,1.85,2.07,1.69,2.19,3.28
ACUAACCUAGGUCAUCGGGUG [Fam2.2 aminoacylation ribozyme variant],6.91,5.7,6.8,3.36,8.64,40.7
ACUACCCAGGUCAUCGAGUGA [Fam2.1 aminoacylation ribozyme variant],5.32,3.72,5.02,3.89,6.28,23.2
ACUACCCGGGUCAUCGAGUGA [Fam2.1 aminoacylation ribozyme variant],8.27,4.64,7.84,4.17,8.28,43.7
ACUACCCUGGUCACCGAGUGA [Fam2.1 aminoacylation ribozyme variant],9.34,4.67,9.06,4.77,11.2,46.5
ACUACCCUGGUCAUCCAGUGA [Fam2.1 aminoacylation ribozyme variant],5.86,3.37,5.05,3.27,5.01,21.2
ACUACCCUGGUCAUCGACUGA [Fam2.1 aminoacylation ribozyme variant],0.51,0.918,1.09,0.854,0.769,3.44
ACUACCCUGGUCAUCGAGUUA [Fam2.1 aminoacylation ribozyme variant],3.55,2.05,5.07,2.38,5.11,8.46
ACUACCCUGGUCUUCGAGUGA [Fam2.1 aminoacylation ribozyme variant],5.15,2.45,4.26,2.72,4.54,11.5
ACUAGCCUGGUCAUCGAGUGA [Fam2.1 aminoacylation ribozyme variant],5.21,3.66,4.28,3.68,4.72,30.2
ACUCACAUAGGUCAUCGGGUG [Fam2.2 aminoacylation ribozyme variant],10.2,6.79,9.37,6.65,10.6,69.5
ACUCACCAAGGUCAUCGGGUG [Fam2.2 aminoacylation ribozyme variant],6.28,4.43,5.24,4.52,7.13,46.4
ACUCACCUAGGCCAUCGGGUG [Fam2.2 aminoacylation ribozyme variant],5.91,4.74,4.87,6.46,5.87,34.2
ACUCACCUAGGUCAUGGGGUG [Fam2.2 aminoacylation ribozyme variant],4.43,3.61,3.95,4,4.65,24.8
ACUCACCUCGGUCAUCGGGUG [Fam2.2 aminoacylation ribozyme variant],6.06,4.08,4.36,4.77,5.87,34.4
ACUCACCUGGGUCAUCGGGUG [Fam2.2 aminoacylation ribozyme variant],8.05,4.86,4.83,4.66,5.61,38.9

Sequence,self-aminoacylation (biotinyl-Trp-oxazolone),self-aminoacylation (biotinyl-Ile-oxazolone),self-aminoacylation (biotinyl-Met-oxazolone),self-aminoacylation (biotinyl-Val-oxazolone),self-aminoacylation (biotinyl-Leu-oxazolone),self-aminoacylation (biotinyl-Phe-oxazolone)
ACUGCCCUGGUCAUCGAGUGA [Fam2.1 aminoacylation ribozyme variant],37.1,13.4,36,14.9,34.1,269
AGACACUUCAAGCAAUCGGUC [Fam1B.1 aminoacylation ribozyme variant],16,2.8,2.62,2.64,3.25,19
AGACUUCAAACAAUCGGUCUG [Fam1A.1 aminoacylation ribozyme variant],48.1,2.06,2.4,1.93,3.5,125
AGCUUUGCUAAUAGUCGCAAG [Fam3.1 aminoacylation ribozyme variant],3.68,2.95,3.31,2.4,3.02,9.09
AGGCACCUAGGUCAUCGGGUG [Fam2.2 aminoacylation ribozyme variant],4.1,2.94,3.14,3.73,3.18,17
AGGUUAGCUAAUAGUCGCAAG [Fam3.1 aminoacylation ribozyme variant],3.06,1.97,1.46,1.77,2.16,2.66
AGGUUUACUAAUAGUCGCAAG [Fam3.1 aminoacylation ribozyme variant],1.81,1.58,1.84,1.47,1.49,4.12
AGGUUUCCUAAUAGUCGCAAG [Fam3.1 aminoacylation ribozyme variant],1.54,1.65,1.6,1.44,1.61,2.49
AGGUUUGCUAAGAGUCGCAAG [Fam3.1 aminoacylation ribozyme variant],1.54,1.12,1.15,1.02,1.02,3.17
AGGUUUGCUAAUAGUCGCAAA [Fam3.1 aminoacylation ribozyme variant],1.92,2.52,2.11,2.2,2.42,3.21
AGGUUUGCUAAUAGUCGCAAC [Fam3.1 aminoacylation ribozyme variant],1.43,1.26,1.15,1.05,1.13,1.52
AGGUUUGCUACUAGUCGCAAG [Fam3.1 aminoacylation ribozyme variant],1.77,1.35,1.55,1.69,1.84,2.49
AGGUUUGCUAGUAGUCGCAAG [Fam3.1 aminoacylation ribozyme variant],0.88,0.918,0.787,0.894,0.945,1.49
AGUACCCUCGUCAUCGAGUGA [Fam2.1 aminoacylation ribozyme variant],3.06,2.37,3.19,2.08,3.97,18.8
AGUACCCUGGUCAGCGAGUGA [Fam2.1 aminoacylation ribozyme variant],7.2,3.51,4.42,3.45,6.63,36.4
AGUACCCUGGUCAUCGACUGA [Fam2.1 aminoacylation ribozyme variant],1.01,1.34,1.1,1.07,0.974,0.572
AGUACCCUGGUCAUCGAGGGA [Fam2.1 aminoacylation ribozyme variant],2.91,1.43,1.22,1.47,2.21,1.82
AGUACCCUGGUCAUCGCGUGA [Fam2.1 aminoacylation ribozyme variant],20.5,8.36,19.4,12.2,20.3,128
AGUACCCUGGUCAUGGAGUGA [Fam2.1 aminoacylation ribozyme variant],2.82,2.31,2.7,2.27,3.1,11
AGUACCCUGGUCAUUGAGUGA [Fam2.1 aminoacylation ribozyme variant],9.07,3.86,6.37,3.39,7.4,37.2
AGUACCCUGGUGAUCGAGUGA [Fam2.1 aminoacylation ribozyme variant],5.32,2.76,5.62,2.92,5.58,30.2
AGUACCCUGUUCAUCGAGUGA [Fam2.1 aminoacylation ribozyme variant],4.52,2.36,4.14,2.45,4.46,17.4
AGUACGCUGGUCAUCGAGUGA [Fam2.1 aminoacylation ribozyme variant],5.19,3.17,2.82,3.21,4.19,14.4
AGUACUCUGGUCAUCGAGUGA [Fam2.1 aminoacylation ribozyme variant],3.97,3.14,4.15,3.01,3.94,11.4
AGUAUCCUGGUCAUCGAGUGA [Fam2.1 aminoacylation ribozyme variant],8.53,4.12,6.72,4,7.39,20.7

# Source: the supplement of paper PMC9233669
